Results from patent US20220363770A1 (Amgen, published 2022).
Where a chain is given by its changes, count along the chain named. Numbers in names are those of the source.

T1: human PAC1 receptor on SH-SY5Y (CRL-2266) cells (human, UniProt P41586 24-468)
T1 sequence: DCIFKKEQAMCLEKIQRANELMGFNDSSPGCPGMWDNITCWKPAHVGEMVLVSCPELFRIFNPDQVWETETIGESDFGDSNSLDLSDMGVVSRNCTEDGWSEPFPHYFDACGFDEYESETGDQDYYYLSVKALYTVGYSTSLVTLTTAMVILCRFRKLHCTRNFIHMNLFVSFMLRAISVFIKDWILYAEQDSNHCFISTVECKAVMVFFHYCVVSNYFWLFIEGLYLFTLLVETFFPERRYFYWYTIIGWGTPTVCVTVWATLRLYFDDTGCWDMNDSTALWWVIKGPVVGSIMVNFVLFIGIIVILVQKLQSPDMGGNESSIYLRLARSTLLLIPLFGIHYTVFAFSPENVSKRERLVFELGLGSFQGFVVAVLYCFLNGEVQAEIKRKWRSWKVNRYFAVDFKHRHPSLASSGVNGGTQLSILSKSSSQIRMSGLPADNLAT

B1: iPS:571017 (5604) anti-CGRP receptor/anti-PAC1 receptor bispecific hetero-immunoglobulin (bispecific antibody, human IgG1, kappa, lambda, N297G)
light 1: QSVLTQPPSVSAAPGQKVTISCSGSYSNIGRYSVSWYQQLPGTAPKLLIYDNNKRPSGIPDRFSGSKSGTSATLGITGLQTGDEADYYCGTWDSRLSAVVFGGGTKLTVLGQPKAAPSVTLFPPSSEELQANKATLVCLISDFYPGAVTVAWKADSSPVKAGVETTTPSKQSNNKYAAKSYLSLTPEQWKSHRSYSCQVTHEGSTVEKTVAPTECS
heavy 1: QVQLVESGGGVVQPGRSLRLSCAASGFTFSSFGMHWVRQAPGKGLEWVAVISFDGSIKYSVDSVKGRFTISRDNSKNTLFLQMNSLRAEDTAVYYCARDRLNYYESSGYYHYKYYGMAVWGQGTTVTVSSASTKGPSVFPLAPSSKSTSGGTAALGCLVKDYFPEPVTVSWNSGALTSGVHTFPAVLQSSGLYSLESVVTVPSSSLGTQTYICNVNHKPSNTKVDKKVEPKSCDKTHTCPPCPAPELLGGPSVFLFPPKPKDTLYITREPEVTCVVVDVSHEDPEVKFNWYVDGVEVHNAKTKPCEEQYGSTYRCVSVLTVLHQDWLNGKEYKCKVSNKALPAPIEKTISKAKGQPREPQVYTLPPSRKEMTKNQVSLTCLVKGFYPSDIAVEWESNGQPENNYKTTPPVLKSDGSFFLYSKLTVDKSRWQQGNVFSCSVMHEALHNHYTQKSLSLSPGK
light 2: EIVLTQSPATLSLSPGERATLSCRASKSVGRSLHWYQQKPGQAPRLLIKYASQSLSGIPARFSGSGSGTDFTLTISSLEPEDFAVYYCHQSSRLPFTFGPGTKVDIKRTVAAPSVFIFPPSDEQLKSGTASVVCLLNNFYPREAKVQWKVDNALQSGNSQESVTEQDSKDSTYSLESTLTLSKADYEKHKVYACEVTHQGLSSPVTKSFNRGEC
heavy 2: not shown
B2: iPS:571824 (5609) anti-CGRP receptor/anti-PAC1 receptor bispecific hetero-immunoglobulin (bispecific antibody, human IgG1, kappa, lambda, N297G)
light 1: B1 light 1
heavy 1: B1 heavy 1 with K369E, E370K
light 2: B1 light 2
heavy 2: not shown
B3: iPS:571023 (5607) anti-CGRP receptor/anti-PAC1 receptor bispecific hetero-immunoglobulin (bispecific antibody, human IgG1, kappa, lambda, N297G)
light 1: B1 light 1
heavy 1: B1 heavy 1 with Y265M, T267S, E269T
light 2: B1 light 2
heavy 2: not shown
B4: iPS:571025 (5605) anti-CGRP receptor/anti-PAC1 receptor bispecific hetero-immunoglobulin (bispecific antibody, human IgG1, kappa, lambda, N297G)
light 1: B1 light 1
heavy 1: B1 heavy 1
light 2: B1 light 2
heavy 2: not shown
B5: iPS:571033 (5608) anti-CGRP receptor/anti-PAC1 receptor bispecific hetero-immunoglobulin (bispecific antibody, human IgG1, kappa, lambda, N297G)
light 1: B1 light 1
heavy 1: B1 heavy 1 with Y265M, T267S, E269T, K369E, E370K
light 2: B1 light 2
heavy 2: not shown
B6: 4E4 single-point alanine variant antibody H_D54A (antibody, V domains shown)
VH: QVQLVESGGGVVQPGRSLRLSCAASGFTFSSFGMHWVRQAPGKGLEWVAVISFAGSIKYSVDSVKGRFTISRDNSKNTLFLQMNSLRAEDTAVYYCARDRLNYYDSSGYYHYKYYGMAVWGQGTTVTVSS
VL: QSVLTQPPSVSAAPGQKVTISCSGSSSNIGNNYVSWYQQLPGTAPKLLIYDNNKRPSGIPDRFSGSKSGTSTTLGITGLQTGDEADYYCGTWDSRLSAVVFGGGTKLTVLG
notes: Recombinantly expressed as monoclonal antibody; also called CDRH2 D54A antibody variant
B7: 4E4 single-point alanine variant antibody H_Y110A (antibody, V domains shown)
VH: B6 VH with A54D, Y110A
VL: B6 VL
notes: Recombinantly expressed as monoclonal antibody
B8: 4E4 single-point alanine variant antibody H_Y104A (antibody, V domains shown)
VH: B6 VH with A54D, Y104A
VL: B6 VL
notes: as for B7
B9: 4E4 single-point alanine variant antibody H_Y109A (antibody, V domains shown)
VH: B6 VH with A54D, Y109A
VL: B6 VL
notes: as for B7
B10: 4E4 single-point alanine variant antibody H_Y103A (antibody, V domains shown)
VH: B6 VH with A54D, Y103A
VL: B6 VL
notes: as for B7
B11: 4E4 heavy chain Y104A single-point alanine variant antibody (antibody, V domains shown)
VH: B6 VH with A54D, Y104A
VL: B6 VL
notes: Recombinantly expressed as a monoclonal antibody
B12: 4E4 heavy chain Y110A single-point alanine variant antibody (antibody, V domains shown)
VH: B6 VH with A54D, Y110A
VL: B6 VL
notes: as for B11
B13: 4E4 heavy chain Y103A single-point alanine variant antibody (antibody, V domains shown)
VH: B6 VH with A54D, Y103A
VL: B6 VL
notes: as for B11
B14: 4E4 heavy chain Y109A single-point alanine variant antibody (antibody, V domains shown)
VH: B6 VH with A54D, Y109A
VL: B6 VL
notes: as for B11
B15: 4E4 light chain Y33A single-point alanine variant antibody (antibody, V domains shown)
VH: B6 VH with A54D
VL: B6 VL with Y33A
notes: Recombinantly expressed as a monoclonal antibody; also called L-Y33A
B16: 4E4 light chain K67A single-point alanine variant antibody (antibody, V domains shown)
VH: B6 VH with A54D
VL: B6 VL with K67A
notes: as for B11
B17: 4E4 light chain R95A single-point alanine variant antibody (antibody, V domains shown)
VH: B6 VH with A54D
VL: B6 VL with R95A
notes: as for B11

These binders were tested against human CGRP receptor (human CRLR / human RAMP1 heterodimer) on SK-N-MC (HTB-10) cells (human, UniProt Q16602 23-461; O60894 27-148) (assay: cell-based or functional assay).
human CGRP receptor (human CRLR / human RAMP1 heterodimer) on SK-N-MC (HTB-10) cells, sequence (Q16602 23-461 limits assumed, chain 1 of 2): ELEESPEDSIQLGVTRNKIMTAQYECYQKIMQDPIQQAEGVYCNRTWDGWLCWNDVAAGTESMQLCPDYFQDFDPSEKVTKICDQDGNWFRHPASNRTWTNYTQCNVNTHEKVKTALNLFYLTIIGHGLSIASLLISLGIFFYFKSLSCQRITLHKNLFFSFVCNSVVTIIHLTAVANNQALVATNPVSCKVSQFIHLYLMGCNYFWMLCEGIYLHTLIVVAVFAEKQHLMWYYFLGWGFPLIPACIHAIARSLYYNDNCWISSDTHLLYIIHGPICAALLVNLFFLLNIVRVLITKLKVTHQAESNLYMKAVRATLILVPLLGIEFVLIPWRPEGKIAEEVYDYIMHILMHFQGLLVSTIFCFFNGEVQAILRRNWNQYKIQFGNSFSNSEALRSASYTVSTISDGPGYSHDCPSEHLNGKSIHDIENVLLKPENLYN
human CGRP receptor (human CRLR / human RAMP1 heterodimer) on SK-N-MC (HTB-10) cells, sequence (O60894 27-148 limits assumed, chain 2 of 2): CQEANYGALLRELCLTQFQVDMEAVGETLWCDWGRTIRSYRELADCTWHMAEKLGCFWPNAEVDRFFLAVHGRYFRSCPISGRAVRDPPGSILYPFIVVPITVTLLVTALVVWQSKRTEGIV
For B1, the “Fold-improvement over 4E4 Ab (human CGRP receptor IC50)” value (“Fold-improvement over 4E4 Ab” below) was 1.3 fold and the “Human CGRP Receptor IC50 (nM), cell-based cAMP assay” value (from here on “Human CGRP Receptor IC50 (nM)”) was 0.45 nM.
With B2 the “Fold-improvement over 4E4 Ab” value was 1.5 fold and the “Human CGRP Receptor IC50 (nM)” value was 0.38 nM.
B3 was tested, and the “Fold-improvement over 4E4 Ab” value was 0.9 fold and the “Human CGRP Receptor IC50 (nM)” value was 0.63 nM.
With B4 the “Fold-improvement over 4E4 Ab” value was 0.9 fold and the “Human CGRP Receptor IC50 (nM)” value was 0.6 nM.
With B5 the “Fold-improvement over 4E4 Ab” value was 1.7 fold and the “Human CGRP Receptor IC50 (nM)” value was 0.33 nM.

The binders below were run against T1, human PAC1 receptor on SH-SY5Y … (assay: cell-based or functional assay).
In the case of B1, the “Fold-improvement over 29G4v22 Ab (human PAC1 receptor IC50)” value (“Fold-improvement over 29G4v22 Ab” below) is reported as 4.8 fold and the “Human PAC1 Receptor IC50 (nM), cell-based cAMP assay” value (from here on “Human PAC1 Receptor IC50 (nM)”) is reported as 0.86 nM.
B2 was tested, and the “Fold-improvement over 29G4v22 Ab” value was 6.6 fold and the “Human PAC1 Receptor IC50 (nM)” value was 0.62 nM.
For B3, the “Fold-improvement over 29G4v22 Ab” value was 4.4 fold and the “Human PAC1 Receptor IC50 (nM)” value was 0.88 nM.
In the case of B4, the “Fold-improvement over 29G4v22 Ab” value is reported as 3.1 fold and the “Human PAC1 Receptor IC50 (nM)” value is reported as 1.34 nM.
For B5, the “Fold-improvement over 29G4v22 Ab” value was 7.2 fold and the “Human PAC1 Receptor IC50 (nM)” value was 0.57 nM.

Each binder was assayed against T2, soluble CGRP receptor (ECDs of human CRLR and human RAMP1) (human, UniProt Q16602 23-133; O60894 26-117) (assay: SPR (Biacore T200), antibody captured, soluble CGRP receptor as analyte).
T2 construct: complex treated with thrombin before crystallization; also called soluble human CGRP receptor; CRLR ECD/RAMP1 ECD heterodimer
T2 sequence (Q16602 23-133, chain 1 of 2): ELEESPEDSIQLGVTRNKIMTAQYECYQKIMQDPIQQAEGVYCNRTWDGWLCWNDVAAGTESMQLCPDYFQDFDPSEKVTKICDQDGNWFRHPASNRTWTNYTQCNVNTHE
T2 sequence (O60894 26-117, chain 2 of 2): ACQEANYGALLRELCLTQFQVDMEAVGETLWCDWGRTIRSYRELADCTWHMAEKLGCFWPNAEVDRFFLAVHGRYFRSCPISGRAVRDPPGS
With B6 the “fold faster dissociation rate against wild-type 4E4” value was roughly 5 fold.
B7: no binding (tested: 1000 nM (highest analyte concentration)).
B8: no binding (tested: 1000 nM (highest analyte concentration)).
B9: no binding (tested: 1000 nM (highest analyte concentration)).
B10: no binding (tested: 1000 nM (highest analyte concentration)).

What follows are binders tested against T3, soluble CGRP receptor (extracellular domains of human CRLR and human RAMP1) (human, UniProt Q16602 23-133; O60894 26-117) (assay: SPR (Biacore T200), antibody captured by goat anti-human Fc, soluble CGRP receptor as analyte).
T3 construct: the tag and the thrombin site are not described; also called soluble human CGRP receptor; CGRP receptor ECD
T3 sequence (Q16602 23-133, chain 1 of 2): as the sequence (Q16602 23-133, chain 1 of 2) above
T3 sequence (O60894 26-117, chain 2 of 2): as the sequence (O60894 26-117, chain 2 of 2) above
B11: no binding (tested: soluble CGRP receptor up to 1000 nM).
B12: no binding (tested: soluble CGRP receptor up to 1000 nM).
B13: no binding (tested: soluble CGRP receptor up to 1000 nM).
B14: no binding (tested: soluble CGRP receptor up to 1000 nM).

Each binder was assayed against T3, soluble CGRP receptor (extracellular …) (assay: SPR (Biacore T200), antibody captured by goat anti-human Fc, soluble CGRP receptor as analyte, 1:1 model).
Binder B15 has a Kd of 11 nM, a koff of 0.00027 s⁻¹ and a kon of 24000 M⁻¹ s⁻¹.
B16 was tested, and the Kd was 29 nM, the koff was 0.00046 s⁻¹ and the kon was 16000 M⁻¹ s⁻¹.
For B17, the Kd was 43 nM, the koff was 0.00077 s⁻¹ and the kon was 18000 M⁻¹ s⁻¹.
